Test results: publication PMC7178897

Tests used:
[1] = SEC; GNL-purified Env from 293F supernatant on a Superdex 200 Increase 10/300 GL column; profile decomposed into aggregates, trimer and dimer/monomer fractions (UNICORN)
[2] = molecular target: CNE5 chimeric UFO trimer with CNE6 gp41_(ECTO) (HIV-1); test: negative-stain EM; purified Env proteins at 0.05 mg/ml, 2% uranyl acetate, reference-free 2D class averages
[3] = molecular target: CNE107 chimeric UFO trimer with CNE6 gp41_(ECTO) (HIV-1); test: as above
MG13 UFO trimer (HIV-1) [4] = test: native gel or EMSA
MG13 UFO trimer (HIV-1) [5] = test: negative-stain EM; purified Env proteins at 0.05 mg/ml, 2% uranyl acetate, reference-free 2D class averages
[6] = molecular target: MG11 chimeric UFO trimer with CNE6 gp41_(ECTO) (HIV-1); test: as above
CNE6 UFO trimer (HIV-1) [7] = test: native gel or EMSA
CNE6 UFO trimer (HIV-1) [8] = test: negative-stain EM; purified Env proteins at 0.05 mg/ml, 2% uranyl acetate, reference-free 2D class averages
BG505 UFO trimer (HIV-1) [9] = test: native gel or EMSA
BG505 UFO trimer (HIV-1) [10] = test: negative-stain EM; purified Env proteins at 0.05 mg/ml, 2% uranyl acetate, reference-free 2D class averages

With CNE6 UFO trimer the “trimer content (% of the SEC profile)” value [1] was “as high as 70.1% for CNE6”.
For “CNE5 chimeric UFO trimer with CNE6 gp41_(ECTO) (domain or fragment)”, the stoichiometry N [2] was 3.
For “CNE107 chimeric UFO trimer with CNE6 gp41_(ECTO) (domain or fragment)”, the stoichiometry N [3] was 3.
With MG13 UFO trimer the “trimer content (% of the SEC profile)” value [1] was 85.6% for MG13.
With MG13 UFO trimer (domain or fragment) the stoichiometry N (MG13 UFO trimer (HIV-1) [4]) was 3 and the stoichiometry N (MG13 UFO trimer (HIV-1) [5]) was 3.
“MG11 chimeric UFO trimer with CNE6 gp41_(ECTO) (domain or fragment)” showed a stoichiometry N [6] of 3.
Substance CNE6 UFO trimer (domain or fragment) has a stoichiometry N (CNE6 UFO trimer (HIV-1) [7]) of 3 and a stoichiometry N (CNE6 UFO trimer (HIV-1) [8]) of 3.
In the case of BG505 UFO trimer, the “trimer content (% of the SEC profile)” value [1] is reported as “a rate of proper trimer folding of about 75.5%”.
For BG505 UFO trimer (domain or fragment), the stoichiometry N (BG505 UFO trimer (HIV-1) [9]) was 3 and the stoichiometry N (BG505 UFO trimer (HIV-1) [10]) was 3.
For CNE6 SOSIP trimer, the “trimer content (% of the SEC profile)” value [1] was 21.3% for the SOSIP construct.
